The source of these data is the DeepSol protein solubility set.

The series can be described thus: soluble on expression in E. coli; label from the status in PepcDB or PDB records.
As for “MVEVLTLGVIQTTLDSTAAWNTDSGEPKISASEDSRAWYEIRRAMRALADHEDQPRIILLPELALPRTRLDDFERLVCSMNALAIVGVDYRLNHRTKSAKNEGLVLVPRNFWKRTPSRYAARVWFGKRDPAPAEASGFKEYMPPWAFHSDPNVYVFDAGPYGRIGVSICYDFMDIERALLYRGRVHHLFVIAYNRDVKLFESLAVSLSRTAFCNVVVCNTGYFGGSLVVSPYYEAFKRIGYSVDGGKVFTAQCVPLPVRDLDAAIHGFDTKPNATYKHLPPGFTTSMDHTAALPEGPSAVAIPLFTSDLEHHHHHH”, the “soluble on expression in E. coli” value is “not soluble”. Under “MPSNTSIRSNSNAIKARAPASAPKRPTSAEYVKKYTEYLATGHQIRHALQRLYDLNCSIQVFEECLTEKVILQKYTGQSEYQYPVTLLMNKFDDLRKREIRVANEKWSKNGELSAAMFTNKMVMEQRMKDLEKMDQKTANNLFVAALGDSCFIPKKKVDYSKFKITKRSKSSTSTSPSSSSSETSSPIA” stands “not soluble”; under “MHRSTFIRTSGTSSRTLTARYRSQYTGLLVARVLFSTSTTRAQGGNPRSPLQIFRDTFKKEWEKSQELQENIKTLQDASGKLGESEAYKKAREAYLKAQRGSTIVGKTLKKTGETMEHIATKAWESELGKNTRKAAAATAKKLDESFEPVRQTKIYKEVSEVIDDGESSRYGGFITKEQRRLKRERDLASGKRHRAVKSNEDAGTAVVATNIESKESFGKKVEDFKEKTVVGRSIQSLKNKLWDESENPLIVVMRKITNKVGGFFAETESSRVYSQFKLMDPTFSNESFTRHLREYIVPEILEAYVKGDVKVLKKWFSEAPFNVYAAQQKIFKEQDVYADGRILDIRGVEIVSAKLLAPQDIPVLVVGCRAQEINLYRKKKTGEIAAGDEANILMSSYAMVFTRDPEQIDDDETEGWKILEFVRGGSRQFT”, “not soluble”. Regarding “MNYSLEDLPNSGKNPRVYMDIVLNNEIIGRLQIKLFRDAFPAGVENFVQLTNGKTYRVNSNGTGKYKYNRHINRTYEGCKFHNVLHNNYIVSGDIYNSNGSSAGTVYCDEPIPPVFGDYFYPHESKGLLSLVPYTDESGNRYYDSTFMITLDDIRPSNVLDELDRDQVVIGQVYGGLDVLDKINSMIKPYAGRKYPTFSIGKCGAYLDSSQAQRKRPVNVNGTKRFLNKPTRVN”, the “soluble on expression in E. coli” value is on record as “soluble”.

For the sequence “MPPRCYNSNSRRAELLERIQSDIPATVAQALSEDLGGEVNADRDLTAQLLPADKQATATIITREDGIFCGQRWLNEVFIQLGAQISIQWLVTDGDKLTANQTLCHLTGPARILLTGERTALNFLQTLSGVATEVSRYVVQLAGLKTQLLDTRKTLPGLRTALKYAVLCGGGNNHRLGLSDAFLIKENHIIAAGSIKEAVAKAFWIHADVPIEVEVESLDELQQALEAGADIVMLDNFTIPMMRDAVKMRDDHAKTQGSAQLEVSGNVTLETLRSYAETGIDFISVGALTKHITALDLSMRFQ”, the “soluble on expression in E. coli” value is recorded as “not soluble”. Under “GSTPHLVNLNEDPLMSECLLYHIKDGVTRVGQVDMDIKLTGQFIREQHCLFRSIPQPDGEVVVTLEPCEGAETYVNGKLVTEPLVLKSGNRIVMGKNHVFRFNH” stands “soluble”. In the case of “MQLFHKTVNRRGTHSIKWDTYKNEELIHAWIADMDFEVPQPIQTALKKRIEHPIFGYTLPPENIGDIICNWTKKQYNWDIQKEWIVFSAGIVPALSTSIQAFTKENESVLVQPPIYPPFFEMVTTNNRQLCVSPLQKQNDTYAIDFEHLEKQFQQGVKLMLLCSPHNPIGRVWKKEELTKLGSLCTKYNVIVVADEIHSDIIYADHTHTPFASLSEELAARTITCMAPSKTFNIAGLQASIIIIPNEKLRQAFTSIQYRQGFHGLNIFAYTAMQSAYTECNDWLNEIRFYIEDNAKFACEYIKDHIPTLSVMKPEGSFLLWIDCSALNLSQDERTKLLEEKGKIIVEPGEKYGLGGEEHIGINIGCPRSVLEEILNRLRHTFS” it was “soluble”; in that of “SLKTPGYPDGPIAIYGDNIFLYSEPTAEEAARFDVVINCAREVSNPFEINKATRRPMSIAEPDTAVSTASFMTAWEFPQGDDSAETPTTPKALQFQEPEYIHIPWDHNTDIAPDLMDLCHVVDDRTKAGKRVLIHCQQGASRSASLIIAYGLFQRPELTVNDAYYAAQAKSQWISPNMKLMYSLQDFQKEVSTKRTAQPSNREG”, “soluble”.
